In publication PMC10364585:

Target: recombinant spider silk protein eADF4(C16)
Assay: seeded turbidity kinetics at 340 nm; monomeric eADF4(C16) 10-40 uM with 0.5% or 30% (w/w) preformed seeds (sonicated mature fibrils of the same protein), 150 mM KPi pH 8.0, quiescent, 20-40 C; global fit with AmyloFit (secondary nucleation model)

A rate constant for primary nucleation kn of 1e-09 M⁻¹ s⁻¹ was found for “recombinant spider silk protein eADF4(C16)” in this work.
